The record followed here is article PMC9482650, “Quantitative fragmentomics allow affinity mapping of interactomes” (Nature Communications, 2022).

Changes are numbered by the printed parent chain.

Holding throughout (assay): holdup assay
Set-up in all cases: key: below the threshold = too weak to quantify, mostly under pKd 3.1 to 4

Assay [1] concerns the target T1, PDZRN3_1, Q9UPQ7.
T1 sequence (Q9UPQ7 244-349, limits assumed, looked up): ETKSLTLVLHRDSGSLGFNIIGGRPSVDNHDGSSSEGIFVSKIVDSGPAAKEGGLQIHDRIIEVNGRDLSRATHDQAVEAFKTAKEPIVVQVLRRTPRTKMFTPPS

The target of assay [2] is SCRIB_2, Q14160.
The target in assay [3] is SNX27, Q96L92.
Assay [4] addresses T2, NHERF3_4, Q5T2W1.
T2 sequence (Q5T2W1 373-468, limits assumed, looked up): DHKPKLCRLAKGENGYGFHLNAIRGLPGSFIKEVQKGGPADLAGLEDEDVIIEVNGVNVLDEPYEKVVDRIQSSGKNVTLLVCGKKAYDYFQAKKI

The target of assay [5] is DLG4_2, P78352.
The target of assay [6] is FRMPD3, Q5JV73.
Assay [7] concerns the target T3, TIAM2, Q8IVF5.
T3 sequence (Q8IVF5 885-986, limits assumed, looked up): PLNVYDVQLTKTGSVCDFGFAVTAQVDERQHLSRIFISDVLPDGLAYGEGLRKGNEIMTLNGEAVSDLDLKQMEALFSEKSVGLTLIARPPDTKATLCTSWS

For assay [8], the target named is T4, DFNB31_1, Q9P202.
T4 sequence (Q9P202 135-233, limits assumed, looked up): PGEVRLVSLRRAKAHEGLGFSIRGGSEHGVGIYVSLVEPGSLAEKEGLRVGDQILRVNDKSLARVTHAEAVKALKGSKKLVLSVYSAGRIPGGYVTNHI

In assay [9] the target is DLG1_2, Q12959.
For assay [10], the target named is T5, SYNJ2BP, P57105.
T5 sequence (P57105 8-110, limits assumed, looked up): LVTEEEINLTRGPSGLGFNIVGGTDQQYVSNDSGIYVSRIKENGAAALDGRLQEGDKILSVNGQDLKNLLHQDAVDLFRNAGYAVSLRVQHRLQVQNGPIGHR

Assay [11] addresses MAST2, Q6P0Q8.
Assay [12] addresses Inadl_3, Q8NI35.
Assay [13] deals with T6, PDZD7_3, Q9H5P4.
T6 sequence (Q9H5P4 857-944, limits assumed, looked up): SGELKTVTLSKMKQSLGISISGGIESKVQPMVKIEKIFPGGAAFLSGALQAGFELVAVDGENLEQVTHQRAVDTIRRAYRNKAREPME

The target in assay [14] is T7, LNX2_2, Q8N448.
T7 sequence (Q8N448 334-432, limits assumed, looked up): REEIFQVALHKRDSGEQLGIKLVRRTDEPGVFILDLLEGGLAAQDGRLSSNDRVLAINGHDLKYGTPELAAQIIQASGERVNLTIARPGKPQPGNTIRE

In assay [15] the target is LNX1_2, Q8TBB1.
The target of assay [16] is T8, FRMPD1, Q5SYB0.
T8 sequence (Q5SYB0 52-145, limits assumed, looked up): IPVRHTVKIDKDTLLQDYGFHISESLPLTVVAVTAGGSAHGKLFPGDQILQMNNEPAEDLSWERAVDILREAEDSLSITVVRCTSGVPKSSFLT

The target of assay [17] is PTPN3, P26045.
The target of assay [18] is T9, LIN7A, O14910.
T9 sequence (O14910 103-200, limits assumed, looked up): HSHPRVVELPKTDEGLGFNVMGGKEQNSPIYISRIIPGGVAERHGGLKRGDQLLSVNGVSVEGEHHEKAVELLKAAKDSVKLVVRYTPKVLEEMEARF

The target of assay [19] is T10, LIN7B, Q9HAP6.
T10 sequence (Q9HAP6 88-185, limits assumed, looked up): T9 sequence (O14910 103-200, limits assumed, looked up) with S2A, V20I, I35V, E42D, H65Q, K77Q, D78G, K89R

In assay [20] the target is HTRA1, Q92743.
Assay [21] deals with T11, MPDZ_10, O75970.
T11 sequence (O75970 1624-1722, limits assumed, looked up): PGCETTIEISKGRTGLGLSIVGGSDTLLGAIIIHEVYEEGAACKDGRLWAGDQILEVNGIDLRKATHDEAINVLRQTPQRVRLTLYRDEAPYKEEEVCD

Assay [22] addresses FRMPD2_2, Q68DX3.
For assay [23], the target named is T12, RAPGEF6, Q8TEU7.
T12 sequence (Q8TEU7 525-625, limits assumed, looked up): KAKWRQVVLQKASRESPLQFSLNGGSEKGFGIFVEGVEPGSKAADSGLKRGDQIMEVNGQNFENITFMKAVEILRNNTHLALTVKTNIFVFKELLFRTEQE

Assay [24] has as its target T13, SIPA1L2, Q9P2F8.
T13 sequence (Q9P2F8 945-1036, limits assumed, looked up): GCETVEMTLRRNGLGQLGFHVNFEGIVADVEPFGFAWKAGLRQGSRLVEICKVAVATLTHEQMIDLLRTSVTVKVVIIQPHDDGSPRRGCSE

Where [25] appears, read: plain residues with an end cap or a label only (N-terminal biotin on a linker: ado-ado).
Setting [26] is: plain residues with an end cap or a label only (N-terminal biotin on a linker: (peg)3).

HTRA1, Q92743, sequence (Q92743 360-477): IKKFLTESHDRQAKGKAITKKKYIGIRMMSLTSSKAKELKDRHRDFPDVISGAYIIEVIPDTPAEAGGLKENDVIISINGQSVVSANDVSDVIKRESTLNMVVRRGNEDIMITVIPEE
DLG4_2, P78352, sequence (P78352 155-259): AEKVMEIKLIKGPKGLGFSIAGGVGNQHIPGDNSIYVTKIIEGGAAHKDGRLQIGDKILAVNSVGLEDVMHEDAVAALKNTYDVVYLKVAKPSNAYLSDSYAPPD
Inadl_3, Q8NI35, sequence (Q8NI35 359-469): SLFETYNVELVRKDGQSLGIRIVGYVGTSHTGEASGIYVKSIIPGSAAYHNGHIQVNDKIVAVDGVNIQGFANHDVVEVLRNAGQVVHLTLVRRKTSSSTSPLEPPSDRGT
FRMPD3, Q5JV73, sequence (Q5JV73 12-100): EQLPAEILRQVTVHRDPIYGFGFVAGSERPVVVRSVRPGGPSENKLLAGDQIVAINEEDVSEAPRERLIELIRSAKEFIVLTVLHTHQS
LNX1_2, Q8TBB1, sequence (Q8TBB1 371-470): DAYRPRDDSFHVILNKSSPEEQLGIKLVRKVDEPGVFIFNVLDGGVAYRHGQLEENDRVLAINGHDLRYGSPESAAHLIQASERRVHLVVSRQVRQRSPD
PTPN3, P26045, sequence (P26045 505-587): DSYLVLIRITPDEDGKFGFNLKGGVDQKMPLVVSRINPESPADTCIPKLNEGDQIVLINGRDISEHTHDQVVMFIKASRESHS
FRMPD2_2, Q68DX3, sequence (Q68DX3 944-1038): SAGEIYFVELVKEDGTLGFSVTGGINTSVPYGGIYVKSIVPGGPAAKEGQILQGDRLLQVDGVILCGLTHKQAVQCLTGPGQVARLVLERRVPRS
DLG1_2, Q12959, sequence (Q12959 314-412): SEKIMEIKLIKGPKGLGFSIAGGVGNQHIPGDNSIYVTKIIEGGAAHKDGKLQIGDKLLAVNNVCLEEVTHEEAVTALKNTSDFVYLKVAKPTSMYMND
SCRIB_2, Q14160, sequence (Q14160 857-960): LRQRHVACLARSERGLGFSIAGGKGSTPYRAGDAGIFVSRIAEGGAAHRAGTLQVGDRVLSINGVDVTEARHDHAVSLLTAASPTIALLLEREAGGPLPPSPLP
MAST2, Q6P0Q8, sequence (Q6P0Q8 1099-1202): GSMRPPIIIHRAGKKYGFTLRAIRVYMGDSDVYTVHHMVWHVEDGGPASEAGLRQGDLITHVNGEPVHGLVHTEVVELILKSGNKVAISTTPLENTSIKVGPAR

On to RPGFASESKV [ADRB1, P08588], for which the pKd in assay [1] (setting [25]) is 3.92; in assay [2] (setting [25]) it was 4.04; in assay [3] (setting [25]), 4.84; in [4] (setting [25]), “below the threshold”; in assay [5] (setting [25]), 4.22; in [6] (setting [25]), “below the threshold”. For the same molecule, the pKd result in [7] (setting [25]) is “below the threshold”; in [8] (setting [25]), 4.21; in [9] (setting [25]), 4.49; in [10] (setting [25]), 4.64; in assay [11] (setting [25]), 5.01; in [12] (setting [25]), “below the threshold”. Also, the pKd in assay [13] (setting [25]) was 3.71; in assay [14] (setting [25]) it was “below the threshold”; in assay [15] (setting [25]) it was “below the threshold”; in assay [16] (setting [25]), “below the threshold”; in assay [17] (setting [25]), 4.32; in [18] (setting [25]), “below the threshold”. Further, the pKd result in [19] (setting [25]) was “below the threshold”; in assay [20] (setting [25]), “below the threshold”; in assay [21] (setting [25]), “below the threshold”; in [22] (setting [25]), 3.5; in assay [23] (setting [25]) it was “below the threshold”; in assay [24] (setting [25]), “below the threshold”.

Take GQETPLNTFC [MAP7D2, Q96T17]: the negative logarithm of the Kd (pKd) result is “below the threshold” in [1] (setting [25]); “below the threshold” in assay [2] (setting [25]); 3.49 in assay [3] (setting [25]); “below the threshold” in assay [4] (setting [25]); 3.48 in assay [5] (setting [25]); “below the threshold” in assay [6] (setting [25]). Also, the pKd was 3.62 in assay [7] (setting [25]); “below the threshold” in [8] (setting [25]); “below the threshold” in assay [9] (setting [25]); “below the threshold” in assay [10] (setting [25]); 4.21 in assay [11] (setting [25]); “below the threshold” in assay [12] (setting [25]). The pKd in assay [13] (setting [25]) is 4.29; in assay [14] (setting [25]), “below the threshold”; in [15] (setting [25]) it was “below the threshold”; in [16] (setting [25]) it was “below the threshold”; in assay [17] (setting [25]) it was 4.38; in [18] (setting [25]) it was “below the threshold”. Besides, the negative logarithm of the Kd (pKd) in [19] (setting [25]) was 3.81; in assay [20] (setting [25]) it was 3.79; in assay [21] (setting [25]) it was “below the threshold”; in assay [22] (setting [25]) it was “below the threshold”; in assay [23] (setting [25]), “below the threshold”; in [24] (setting [25]) it was “below the threshold”.

Regarding YDEPTTTTSVPL [SARS-Cov2-3a, P0DTC3], the pKd result was “below the threshold” in assay [1] (setting [26]); “below the threshold” in [2] (setting [26]); “below the threshold” in assay [3] (setting [26]); 4.29 in [4] (setting [26]); “below the threshold” in assay [5] (setting [26]); “below the threshold” in [6] (setting [26]). Further, the pKd entry in [7] (setting [26]), in [8] (setting [26]), in [9] (setting [26]), in assay [10] (setting [26]), in assay [11] (setting [26]) and in [12] (setting [26]) was “below the threshold” in each case. In addition, the pKd result in [13] (setting [26]), in [14] (setting [26]), in [15] (setting [26]), in assay [16] (setting [26]), in assay [17] (setting [26]) and in [18] (setting [26]) was “below the threshold” throughout. In addition, the negative logarithm of the Kd (pKd) entry in assay [19] (setting [26]), in [20] (setting [26]), in assay [21] (setting [26]), in [22] (setting [26]), in assay [23] (setting [26]) and in [24] (setting [26]) was “below the threshold” in each case.

For RTQSSDSAYV [GJD2, Q9UKL4], the pKd entry in [1] (setting [25]) is “below the threshold”; in [2] (setting [25]) it was “below the threshold”; in [3] (setting [25]) it was 4.13; in assay [4] (setting [25]) it was 3.54; in assay [5] (setting [25]) it was 3.65; in assay [6] (setting [25]), 3.65. In addition, the pKd result in [7] (setting [25]) is “below the threshold”; in [8] (setting [25]), “below the threshold”; in assay [9] (setting [25]), 3.88; in assay [10] (setting [25]), 3.66; in assay [11] (setting [25]), 4.17; in assay [12] (setting [25]), “below the threshold”. Besides, the pKd result in assay [13] (setting [25]) was “below the threshold”; in [14] (setting [25]), 4.65; in assay [15] (setting [25]), 4.11; in assay [16] (setting [25]) it was “below the threshold”; in [17] (setting [25]), 3.52; in [18] (setting [25]), “below the threshold”. Moreover, the pKd result in [19] (setting [25]) is “below the threshold”; in assay [20] (setting [25]), 4.6; in assay [21] (setting [25]) it was “below the threshold”; in assay [22] (setting [25]), “below the threshold”; in assay [23] (setting [25]) it was “below the threshold”; in assay [24] (setting [25]) it was “below the threshold”.

The term pKd denotes the negative decadic logarithm of the Kd, by convention in mol/L.
